Assay results: patent US20240343823A1 (Ablynx, published 2024)

Legend:
[1] = target: T1, TCRab on primary cyno T cells (cynomolgus); assay: competition flow cytometry on cyno T cells, competitor T017000623 at EC30 (5E-08 M)
T1 construct: whole, on cells; also called Primary cy T cells; cyno TCR
Protocol: T cells (human T cells obtained as described in Example 3 and cyno T cells purchased from LPT laboratory, Germany) were thawed and counted on the day of the assay and diluted to a concentration of 1E+06 cells/mL, before adding 75 μL to the wells of a V-bottom 96-well plate (Greiner, cat no 651180). Cells were washed once with cold FACS buffer, before adding 25 μL Nb and 25 μL competitor to the wells. […] Cells were resuspended and plates were incubated at 4° C. for 90 minutes, after which plates were washed twice in cold FACS buffer. Cells were resuspended in 50 μl 1/1000 diluted Monoclonal ANTI-FLAG® M2 (Sigma Aldrich, cat no F1804) in FACS buffer and incubated at 4° C. for 30 minutes. Plates were washed twice in cold FACS buffer. […] Plates were washed twice in cold FACS buffer. Cells were resuspended in 55 μL 1/1000 diluted Propidium Iodide (Sigma-Aldrich, cat no P4170) in FACS buffer before acquiring data on the MACSQuant X (Miltenyi biotec).

[2] = target: T2, Human GPC1 (R&D systems, cat no 4519-GP) (human, UniProt P35052 24-530, limits assumed); assay: ELISA, GPC1 coated at 2 ug/mL
T2 construct: Bought
T2 sequence (looked up): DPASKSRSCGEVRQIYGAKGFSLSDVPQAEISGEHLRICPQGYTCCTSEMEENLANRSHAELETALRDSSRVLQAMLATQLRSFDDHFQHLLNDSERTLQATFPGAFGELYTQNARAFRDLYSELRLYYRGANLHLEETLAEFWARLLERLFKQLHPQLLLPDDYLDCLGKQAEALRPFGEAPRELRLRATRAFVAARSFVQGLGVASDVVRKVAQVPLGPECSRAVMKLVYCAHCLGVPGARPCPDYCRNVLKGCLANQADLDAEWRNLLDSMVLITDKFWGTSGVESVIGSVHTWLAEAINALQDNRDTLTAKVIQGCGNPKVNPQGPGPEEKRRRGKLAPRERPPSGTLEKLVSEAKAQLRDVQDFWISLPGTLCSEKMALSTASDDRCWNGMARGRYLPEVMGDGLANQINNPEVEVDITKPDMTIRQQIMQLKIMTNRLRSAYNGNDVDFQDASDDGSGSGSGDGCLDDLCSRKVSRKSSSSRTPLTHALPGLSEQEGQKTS
Protocol: Human GPC1 (R&D systems, cat no 4519-GP), human GPC2 (R&D systems, cat no 2304-GP), human GPC3 (R&D systems, cat no 2119-GP), human Glypican-5 (R&D systems, cat no 2607-G5) and human Glypican-6 (R&D systems, cat no 2845-GP) were directly coated overnight at 4° C. (2 μg/mL, 1×PBS buffer) on a 384-well HB SpectraPlate (PerkinElmer). The following day the plate was washed 6 times (AquaMax microplate washer, Molecular devices) and blocked with 1×PBS+1% Casein for 2 hours at room temperature. […] After 6 final wash steps the es(HS)TMB substrate (SDT) was added and the reaction stopped by addition of 1 M HCl after 10 minutes. The absorbance of the plate was measured at wavelengths 450 and 620 nm on the Clariostar instrument (BMG LABTECH) and the OD₄₅₀-OD₆₂₀ calculated and plotted for data analysis.

[3] = target: T3, cyno serum albumin (in house produced from animal tissue) (cynomolgus); assay: SPR ProteOn XPR36, serum albumin immobilized by amine coupling, 1:1 model
T3 construct: also called cynomolgus serum albumin
Protocol: (§1) Serum albumin proteins were immobilized on a GLC Sensor Chip (Biorad) via amine coupling, using EDC and NHS chemistry (running buffer: HBS-EP+, pH 7.4). Purified ISVDs were injected for 2 minutes (flow rate 45 μL/min) at different concentrations (between 0.24 nM and 500 nM) and dissociation was followed for 900 s. Regeneration was performed by injecting 10 mM Glycine-HCl (pH 1.5) for 47 seconds (flow rate 100 μL/min). Data was double referenced by subtracting a reference ligand lane and a blank buffer injection. Processed sensorgrams were analyzed based on the 1:1 interaction model (Langmuir binding model) using ProteOn Manager 3.1.0 (Version 3.1.0.6) software.

[4] = target: T4, human serum albumin (Sigma cat no A8763) (human, UniProt P02768 25-609); assay: as above
T4 construct: also called HSA
Protocol: as §1

[5] = target: mouse serum albumin (DivBioScience cat no IMSA) (mouse, UniProt P07724 25-608); assay: as above
Protocol: as §1

[6] = target: T5, Recombinant human GPC4/hFc (R&D Systems, cat no 9195-GP) (human, UniProt O75487 19-529, limits assumed); assay: SPR ProteOn XPR36, GPC4/hFc captured on anti-human IgG1
T5 construct: Bought; not shown: captured with anti-human IgG1
T5 sequence (looked up): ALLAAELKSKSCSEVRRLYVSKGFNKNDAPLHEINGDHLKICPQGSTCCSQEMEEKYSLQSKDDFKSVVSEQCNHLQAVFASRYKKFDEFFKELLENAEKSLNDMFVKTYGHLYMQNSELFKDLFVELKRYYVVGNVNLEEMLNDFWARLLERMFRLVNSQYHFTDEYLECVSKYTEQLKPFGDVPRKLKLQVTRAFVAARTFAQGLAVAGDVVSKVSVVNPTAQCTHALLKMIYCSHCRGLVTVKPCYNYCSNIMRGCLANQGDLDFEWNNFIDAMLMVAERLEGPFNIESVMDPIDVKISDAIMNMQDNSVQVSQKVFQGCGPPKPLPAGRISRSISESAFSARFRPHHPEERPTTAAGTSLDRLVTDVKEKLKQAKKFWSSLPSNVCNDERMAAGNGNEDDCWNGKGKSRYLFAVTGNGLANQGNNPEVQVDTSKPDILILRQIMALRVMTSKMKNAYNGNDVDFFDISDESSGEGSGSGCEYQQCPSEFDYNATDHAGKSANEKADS
Description: Data was double referenced by subtracting a reference ligand lane and a blank buffer injection.

[7] = target: human GPC3 on tumor cell lines (HepG2, Huh-7, NCI-H661, MKN-45, NCI-H23, BxPC-3, NCI-H292) (human, UniProt P51654 25-554); assay: cell-based or functional assay

Sequence of mouse serum albumin (DivBioScience cat no IMSA) (P07724 25-608 limits assumed): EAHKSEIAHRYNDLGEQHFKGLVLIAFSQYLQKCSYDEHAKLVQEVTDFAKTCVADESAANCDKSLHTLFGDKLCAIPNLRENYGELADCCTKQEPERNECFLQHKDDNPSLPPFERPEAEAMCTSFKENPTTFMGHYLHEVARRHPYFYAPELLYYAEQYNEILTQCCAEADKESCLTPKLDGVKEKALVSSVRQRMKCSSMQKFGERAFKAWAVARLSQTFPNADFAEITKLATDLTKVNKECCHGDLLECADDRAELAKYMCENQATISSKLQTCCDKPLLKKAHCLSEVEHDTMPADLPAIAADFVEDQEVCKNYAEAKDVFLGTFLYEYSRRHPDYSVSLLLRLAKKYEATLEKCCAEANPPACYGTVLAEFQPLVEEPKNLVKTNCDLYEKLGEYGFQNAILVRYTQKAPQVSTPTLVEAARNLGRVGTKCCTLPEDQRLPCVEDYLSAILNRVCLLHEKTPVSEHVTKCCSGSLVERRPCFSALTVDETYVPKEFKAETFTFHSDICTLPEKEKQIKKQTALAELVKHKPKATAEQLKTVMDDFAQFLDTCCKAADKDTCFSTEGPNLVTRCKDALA
T3 sequence (A2V9Z4 25-608): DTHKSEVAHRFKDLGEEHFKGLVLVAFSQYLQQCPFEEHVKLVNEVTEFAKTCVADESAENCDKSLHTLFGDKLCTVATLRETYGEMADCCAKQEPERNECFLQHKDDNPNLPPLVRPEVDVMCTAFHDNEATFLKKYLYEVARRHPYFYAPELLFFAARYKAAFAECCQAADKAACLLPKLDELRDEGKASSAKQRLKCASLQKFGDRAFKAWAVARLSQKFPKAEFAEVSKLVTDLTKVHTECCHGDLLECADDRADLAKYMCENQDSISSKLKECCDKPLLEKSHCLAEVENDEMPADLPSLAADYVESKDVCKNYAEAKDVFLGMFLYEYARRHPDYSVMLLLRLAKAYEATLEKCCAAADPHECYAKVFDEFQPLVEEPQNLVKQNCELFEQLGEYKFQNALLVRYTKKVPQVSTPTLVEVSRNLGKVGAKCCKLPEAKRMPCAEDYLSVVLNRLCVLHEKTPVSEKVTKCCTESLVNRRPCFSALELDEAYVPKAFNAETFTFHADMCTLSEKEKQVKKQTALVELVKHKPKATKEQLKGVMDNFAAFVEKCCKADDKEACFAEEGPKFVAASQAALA

B1: A022600424 (other)
chain: DVQLVESGGGVVQPGGSLRLSCVASGYVHKINFYGWYRQAPGKEREKVAHISIGDQTDYADSAKGRFTISRDESKNTVYLQMNSLRPEDTAAYYCRALSRIWPYDYWGQGTLVTVSSGGGGSEVQLVESGGGVVQPGGSLRLSCAASGFTFSSFAMTWVRRPPGKGLEWVATITNKGVTSYADSVKGRFTISRDNAKNTLYLQMNSLRPEDTALYICANARRTGPRAPTDIGSYRGQGTLVTVSSGGGGSGGGSEVQLVESGGGVVQPGGSLRLSCAASGSIFRSVFSSSTMEWYRQAPGKKRELVARIAPGEGTYYGALYADSVKGRFTISRDNAKNTVYLQMNSLRPEDTALYYCASGVAWGQGTLVTVSSGGGGSGGGSEVQLVESGGGVVQPGGSLRLSCAASGFTFRSFGMSWVRQAPGKGPEWVSSISGSGSDTLYADSVKGRFTISRDNSKNTLYLQMNSLRPEDTALYYCTIGGSLSRSSQGTLVTVSSA
notes: Trispecific tetravalent ISVD (VHH) T-cell engager: anti-TCR, two anti-GPC3 (biparatopic), anti-albumin; also called TCE01-5GS-A022600351-9GS-A022600314-9GS-ALB23002-A
[1]
  IC50: 250 nM
[2]
  binding result: no binding
[3]
  Kd: 0.33 nM
[4]
  Kd: 0.83 nM
[5]
  Kd: 6.9 nM
[6]
  binding result: no binding (tested: between 4 nM and 1000 nM)
[7]
  IC50 (M), xCELLigence TDC assay on Huh-7, Primary cy T cells: 2.29e-10 M
  IC50 (M), xCELLigence TDC assay on Huh-7, Primary hu T cells: 7.59e-11 M
